From article PMC5101909, “Crosslinked duplex DNA nanogels that target specified proteins”

Experiments:
[1] = molecular target: T1, thrombin (UniProt P00734;P00734 328-363;364-622); assay: EMSA (agarose gel, SYBR Gold); aptamer polymer/thrombin 1/10; Nanogels generated in PBS; buffer, pH and temperature of thrombin binding assays not in the material (section 2.5 text missing)
[2] = molecular target: T1, thrombin; assay: EtBr fluorescence decrease (duplex displacement); EtBr-loaded nanogel; concentration dependent; Nanogels generated in PBS; buffer, pH and temperature of thrombin binding assays not in the material (section 2.5 text missing)
[3] = molecular target: albumin (BSA) (bovine, UniProt P02769 25-607); assay: EtBr fluorescence (duplex displacement); EtBr-loaded nanogel; Nanogels generated in PBS; buffer, pH and temperature of thrombin binding assays not in the material (section 2.5 text missing); details: label: EtBr intercalated; 11 bp GCTCCGGTTGG/CCAACCGGAGC; 5' overhangs 7 nt T (aptaDNA) and 12 nt T (coDNA); 3' overhang 9 nt TGTGGTTGG (aptaDNA)
albumin (BSA), sequence (P02769 25-607): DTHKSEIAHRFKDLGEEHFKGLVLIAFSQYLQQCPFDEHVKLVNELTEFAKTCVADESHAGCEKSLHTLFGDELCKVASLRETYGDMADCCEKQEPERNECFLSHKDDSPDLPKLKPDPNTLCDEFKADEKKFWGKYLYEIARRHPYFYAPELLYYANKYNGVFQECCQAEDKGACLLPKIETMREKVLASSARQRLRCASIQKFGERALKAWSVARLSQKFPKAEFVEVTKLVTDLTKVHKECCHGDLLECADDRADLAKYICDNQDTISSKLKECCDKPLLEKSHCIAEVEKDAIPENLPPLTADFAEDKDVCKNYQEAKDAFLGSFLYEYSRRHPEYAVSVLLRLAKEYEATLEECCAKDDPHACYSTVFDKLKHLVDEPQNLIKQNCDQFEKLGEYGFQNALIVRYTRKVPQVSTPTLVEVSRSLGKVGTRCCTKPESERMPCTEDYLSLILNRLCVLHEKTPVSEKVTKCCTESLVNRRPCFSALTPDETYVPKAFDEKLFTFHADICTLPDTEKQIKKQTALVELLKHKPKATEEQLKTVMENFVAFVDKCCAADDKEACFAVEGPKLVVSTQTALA

| Binder | binding result [1] | binding result [2] | binding result [3] |
| --- | --- | --- | --- |
| TTTTTTTGCTCCGGTTGGTGTGGTTGG (structured_DNA, 5'-acrydite copolymerized with MPC (MPC/oligo 38/1)) [P(MPC/aptaDNA)] | binds |  |  |
| P(MPC/aptaDNA)/P(MPC/coDNA) nanogel (mixed, 5'-acrydite of both strands copolymerized with MPC (38/1 and 45/1)) DNA 1: TTTTTTTGCTCCGGTTGGTGTGGTTGG DNA 2: TTTTTTTTTTTTCCAACCGGAGC |  | binds | no binding |
